Laboratory results: patent US11789019B2 (priority 2014, dated 2023)
“Also recorded” adds a separate entry of the source. Where two headings read alike, the source gives them in different places.

Legend:
[1] = biological target: recombinant Calnexin (Paracoccidioides brasiliensis Calnexin with C-terminal 6xHis tag, from E. coli) (Paracoccidioides brasiliensis)
[2] = tested on: calnexin peptide #1-specific CD4+ T cells; format: in vivo, mouse
[3] = tested on: B. dermatitidis strain 26199; format: in vivo, Blastomyces dermatitidis
1807 cells [4] = format: cell-based, mouse; conditions: calnexin peptide #1 13 amino acid sequence of the named species
human CD4+ T cells = experiment: In vitro stimulation and identification of activated human T cells (PBMC, CD154 enrichment, CD137); format: cell-based
1807 cells [5] = experiment: In vivo activation and proliferation of adoptively transferred 1807 cells; conditions: emulsified in complete Freund's adjuvant; CD44, CFSE
[6] = 10 μg/ml, CD137 on CD154 enriched CD4+ cells, positive >3-fold over medium alone

“1807 T-cell receptor (Blastomyces-specific TCR transgenic 1807 CD4+ T cells)” showed an activation (CD44) and proliferation (CFSE) of adoptively transferred 1807 cells in vivo [1] of 85%.

“LVVKNPAAHHAIS (Blastomyces dermatitidis of strains 26199, 18808, Er-3, 14081; Histoplasma capsulatum of strains G186AR, Nam1, H88, H143; Aspergillus sp.1 of strain group.1; Arthroderma; listed as Ajellomyces capsulatus, listed as Ajellomyces dermatitidis, listed as Arthroderma benhamiae) [Peptide #1, synthetic 13 aa peptide, residues 103-115 of B. dermatitidis calnexin]” was tested, and the “calnexin-specific T cells vs. number of cells in control mice” value ([2]; delivery via the i.v. route) was “more than 20 fold”, the “pool of calnexin-specific T cells in the draining lymph nodes and spleen” value ([2]; delivery via the i.v. route) was greater than 1000 cells and the “tetramer positive CD4+ T cells per animal” value ([2]; naïve C57BL/6 mice) was 30. For the same molecule, the “protection against infection compared to preceding approaches” value ([3]; i.v. delivery of calnexin peptide) was “vaccine efficacy was unchanged”.

In the case of “LVLKNEAAHHAIS (listed as Pneumocystis carinii) [Pneumocystis carinii_Rat Form 1]”, the 1807 reactive (1807 cells [4]; listed as SEQ ID NO: 6) is reported as “not reactive”.

With “LVMKSRASHYAIS (Candida albicans) [Candida albicans_5314]” the 1807 reactive (1807 cells [4]; listed as SEQ ID NO: 9) was “not reactive”.

With “LVLKSRAKHHAIS (listed as Homo sapiens) [SEQ ID NO: 10, reference compound]” the 1807 reactive (1807 cells [4]) was “not reactive”.

B1: rCalnexin: recombinant Paracoccidioides brasiliensis Calnexin with C-terminal 6×His tag expressed in E. coli, 63 kD (protein)
chain: MRLNASLASLILSSIALIGNVHAEDEVKEDATSTSSVIEKPTFTPTTLKAPFLEQFTDGWETRWTPSHAKKEDSKSEEDWAYVGTWAVEEPHVFNGMVGDKGLVVKNPAAHHAISAKFPKKIDNKGKTLVVQYEVKLQNSLNCGGAYMKLLQDNKKLHAEEFSNTSPYVIMFGPDKCGVTNKVHFIFKHKNPKTGEYEEKHMKLPPAVRVSKLSTLYTLIVNPDQSFQIRIDGAAVKNGTLLEDFSPAVNPEKEIDDPEDKKPEDWVDEAHIPDPEATKPEDWDEDAPYEIVDTDATQPEDWLVDEPTSIPDPEAQKPEDWDDEEDGDWIPPTIPNPKCSEVSGCGMWEPPMKKNPEYKGKWTAPMIDNPAYKGPWAPRKIANPNYFEDKTPSNFEPMGAIGFEIWTMQNDILFDNIYIGHSVEDAEKLKAETWDLKHPVEVAEEEAARPKDEEKKEGTLSFKEAPVKYIRGKIELFISLALENPVEAVKAVPEVAGGLGALLVTLVLIIVGAVGLGSPSPAPAAKKQAEKGKEKTAEAVSTAADNVKGEAKKRSGKAGE
In the case of B1, the “tetramer-positive cells displaying CCR6 or CXCR3” value ([2]; draining lymph nodes after vaccination) is reported as 15-20%, the “proportion of CD44+ CD4+ T cells recruited to lung that are tetramer positive” value ([2]; mouse, in vivo) is reported as “more than doubles” and the “tetramer positive lung cells that produced IL-17” value ([2]; mouse, in vivo) is reported as “about 50”. For the same molecule, the “tetramer-positive cells recruited to the lung that were IL-17 producers” value ([2]; mouse, in vivo) was roughly 30%, the “immune subjects that responded” value (human CD4+ T cells; [6]) was “five of six” and the “non-immune subjects that responded” value (human CD4+ T cells; [6]) was “One of four”. The “concentration dependence of CD4+ T cell response” value (human CD4+ T cells; immune subjects) was “dose-dependent; also recorded: concentration-dependent manner”, the “frequency of activated (CD154) cells compared with Hsp60” value (human CD4+ T cells; immune subjects) was “similar” and the “response in the presence of polymyxin B (LPS contribution)” value (human CD4+ T cells; immune subjects) was “not due to contaminating LPS; also recorded: retained in the presence of polymyxin B”. For the same molecule, the survival ([3]; in vivo) was “prolonged survival” and the “transferred 1807 cells activated and proliferating” value (1807 cells [5]) was greater than 85%.
